*1 amine or outer side, *2 acyl side, *3 side chain or, on linkers, in order; H or OH if unused. Bridges are numbered along the chain shown (N, C = ends). Where no end group is shown, it is not given here. [ ]: non-standard residue; d: D form. The star is where a group is joined. X1 = N3CH2C(O)NH(CH2CH2O)3CH2CH2(CO), [N-]=[N+]=NCC(=O)NCCOCCOCCOCCC(=O)*; N3CH2C(O)NH(CH2CH2O)2CH2C(O) = [N-]=[N+]=NCC(=O)NCCOCCOCC(=O)*; TATA = O=C(CC[*:1])N1CN(C(=O)CC[*:2])CN(C(=O)CC[*:3])C1; Trp(1-Me) = Cn1cc(C[C@H](N)C(=O)O)c2ccccc21; Arg(Me2a) = CN(C)C(=N)NCCC[C@H](N)C(=O)O; Phe(4-F) = N[C@@H](Cc1ccc(F)cc1)C(=O)O; tBuAla = CC(C)(C)C[C@H](N)C(=O)O; NMeA = CN[C@@H](C)C(=O)O; Octanoyl = CCCCCCCC(=O)*
B1: Example 251 (peptide)
peptide: {N3CH2C(O)NH(CH2CH2O)2CH2C(O)}-C[NMeA][Trp(1-Me)][tBuAla]QDC[Trp(1-Me)][Arg(Me2a)]G[Phe(4-F)]C-NH2
modifications: linker 1-7-12 via TATA; also: dimer: peptides clicked via N-terminal azido linker to N2,N6-dipent-4-ynoyl-L-lysine core (source also calls it trimeric)
notes: Claim 16 speaks of a dimeric or trimeric moiety
B2: Example 15 (peptide)
peptide: Octanoyl-C[NMeA][Trp(1-Me)][tBuAla]QDC[Trp(1-Me)][Arg(Me2a)]G[Phe(4-F)]C-NH2
modifications: linker 1-7-12 via TATA
SMILES: CCCCCCCC(=O)N[C@H]1CSCCC(=O)N2CN3CN(C2)C(=O)CCSC[C@H](NC(=O)[C@H](CC(=O)O)NC(=O)[C@H](CCC(N)=O)NC(=O)[C@H](CC(C)(C)C)NC(=O)[C@H](Cc2cn(C)c4ccccc24)NC(=O)[C@H](C)N(C)C1=O)C(=O)N[C@@H](Cc1cn(C)c2ccccc12)C(=O)N[C@@H](CCCNC(=N)N(C)C)C(=O)NCC(=O)N[C@@H](Cc1ccc(F)cc1)C(=O)N[C@H](C(N)=O)CSCCC3=O
B3: Example 16 (peptide)
peptide: CQXLEDCXRGXC
modifications: not fully specified; Ac-CQ[TrpMe]LEDC[TrpMe]RG[4-FPhe]C; 3 Cys cyclised with TATA
B4: Example 250 (peptide)
peptide: X1-C[NMeA][Trp(1-Me)][tBuAla]QDC[Trp(1-Me)][Arg(Me2a)]G[Phe(4-F)]C-NH2
modifications: linker 1-7-12 via TATA; also: trimer: three peptides clicked via N-terminal azido linker to N-but-3-yn-1-yl-N2,N6-dipent-4-ynoyl-L-lysinamide core
notes: Trimer of identical bicyclic peptides on a tri-alkyne lysinamide core (formula with F3, S9)
B5: Example 154 (peptide)
peptide: CQWXEDCWRGXC
modifications: not fully specified; N-term acetyl; CQW[LMe]EDCWRG[4-FPhe]C as printed; 3 Cys on TATA
B6: Example 158 (peptide)
peptide: CQWLEDCWRGXC
modifications: not fully specified; N-term acetyl; CQWLEDCWRG[3-PyrA]C as printed; 3 Cys on TATA
B7: Example 157 (peptide)
peptide: CQWLEDCWRGXC
modifications: not fully specified; N-term acetyl; CQWLEDCWRG[4-PyrA]C as printed; 3 Cys on TATA
B8: Example 153 (peptide)
peptide: CQWLEDCWRGXC
modifications: not fully specified; N-term acetyl; CQWLEDCWRG[PentFPhe]C as printed; 3 Cys on TATA
B9: Example 160 (peptide)
peptide: CQWXEDCWRGXC
modifications: not fully specified; N-term acetyl; CQW[4-MenL]EDCWRG[4-FPhe]C as printed; 3 Cys on TATA
B10: Example 11 (peptide)
peptide: CQWLEDCWRGXC
modifications: not fully specified; N-term acetyl; CQWLEDCWRG[3,4diClPhe]C as printed; 3 Cys on TATA
B11: Example 8 (peptide)
peptide: CQWLEDCWRGXC
modifications: not fully specified; N-term acetyl; CQWLEDCWRG[4F3ClPhe]C as printed; 3 Cys on TATA
B12: Example 4 (peptide)
peptide: CQWXEDCWRGXC
modifications: not fully specified; N-term acetyl; CQW[tBuA]EDCWRG[4-FPhe]C as printed; 3 Cys on TATA

Each binder was assayed against T1, Biotinylated human TSLP (human, biotinylated) (assay: SPR, biotinylated hTSLP on streptavidin chip; Example 146, Ac-(SEQ ID NO: 105)).
T1 construct: also called hTSLP; thymic stromal lymphopoietin
T1 sequence (chain, as listed by the source limits assumed): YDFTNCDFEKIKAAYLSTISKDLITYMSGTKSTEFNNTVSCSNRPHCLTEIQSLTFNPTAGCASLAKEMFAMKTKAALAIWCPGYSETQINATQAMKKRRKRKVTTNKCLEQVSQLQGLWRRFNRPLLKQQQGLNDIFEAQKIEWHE
CQWLEDCWRGXC (N-term acetyl; CQWLEDCWRG[2PyrA]C as printed; 3 Cys on TATA) [Example 146] was tested, and the Kd was 910 nM.

These binders were tested against TSLP (as used in the human PBMC assay) (UniProt Q969D9 29-159) (assay: cell-based or functional assay).
In the case of B1, the “CCL17 % Inhibition @ 10 µM, 50 pM TSLP” value is reported as 87% and the “CCL17 % Inhibition @ 10 µM, 400 pM TSLP” value is reported as 85%. For DHDCTWNWEYDCWLDCA (linker 4-12-16 via TATA) [Example 200], the “CCL17 % Inhibition @ 10 µM, 666 pM TSLP” value was -42%. In the case of ACDWHWEYDCWLSCEPETGQA (linker 2-10-14 via TATA) [Example 221], the “CCL17 % Inhibition @ 10 µM, 666 pM TSLP” value is reported as -10%. CQWLEDCWRGXC (not fully specified; Ac-CQWLEDCWRG[3,4diClPhe]C; 3 Cys cyclised with TATA) was tested, and the “CCL17 % Inhibition @ 10 µM, 666 pM TSLP” value was 43%. In the case of CQWLEDCWRGXC (Ac-CQWLEDCWRG[4-ClPhe]C; 3 Cys cyclised with TATA), the “CCL17 % Inhibition @ 10 µM, 666 pM TSLP” value is reported as 14%. For B2, the “CCL17 % Inhibition @ 10 µM, 50 pM TSLP” value was 58% and the “CCL17 % Inhibition @ 10 µM, 400 pM TSLP” value was 64%. B3 was tested, and the “CCL17 % Inhibition @ 10 µM, 666 pM TSLP” value was 52%. B4 was tested, and the “CCL17 % Inhibition @ 10 µM, 50 pM TSLP” value was 83% and the “CCL17 % Inhibition @ 10 µM, 400 pM TSLP” value was 59%.

Each binder was assayed against T1, Biotinylated human TSLP (assay: SPR, biotinylated hTSLP on streptavidin chip; Example 154, Ac-(SEQ ID NO: 113)).
In the case of B5, the Kd is reported as 2900 nM.

The binders below were run against T1, Biotinylated human TSLP (assay: SPR, biotinylated hTSLP on streptavidin chip; Example 158, Ac-(SEQ ID NO: 116)).
B6 gave a Kd of 5400 nM.

The binders below were run against T1, Biotinylated human TSLP (assay: SPR, biotinylated hTSLP on streptavidin chip; Example 14, Ac-(SEQ ID NO: 12)).
CQWLEDCWRGXC (N-term acetyl; CQWLEDCWRG[4-ClPhe]C as printed; 3 Cys on TATA) was tested, and the Kd was 6 nM.

Each binder was assayed against T1, Biotinylated human TSLP (assay: SPR, biotinylated hTSLP on streptavidin chip; Example 157, Ac-(SEQ ID NO: 115)).
Work on B7 yielded a Kd of 3900 nM.

What follows are binders tested against T1, Biotinylated human TSLP (assay: SPR, biotinylated hTSLP on streptavidin chip; Example 153, Ac-(SEQ ID NO: 112)).
B8 showed a Kd of 2700 nM.

The binders below were run against T1, Biotinylated human TSLP (assay: SPR, biotinylated hTSLP on streptavidin chip; Example 160, Ac-(SEQ ID NO: 118)).
B9 showed a Kd of 10000 nM.

Each binder was assayed against T1, Biotinylated human TSLP (assay: SPR, biotinylated hTSLP on streptavidin chip; Example 11, Ac-(SEQ ID NO: 9)).
Work on B10 yielded a Kd of 5.8 nM.

Each binder was assayed against T1, Biotinylated human TSLP (assay: SPR, biotinylated hTSLP on streptavidin chip; Example 8, Ac-(SEQ ID NO: 6)).
In the case of B11, the Kd is reported as 4 nM.

What follows are binders tested against T2, Biotinylated human TSLP (hTSLP(29-159)-Avi) (human, biotinylated (C-terminal Avi-tag)) (assay: SPR, biotinylated hTSLP on streptavidin chip, peptide injected).
T2 construct: also called thymic stromal lymphopoietin
T2 sequence (chain, as listed by the source limits assumed): as the sequence (chain, as listed by the source limits assumed) above
In the case of B1, the Kd is reported as 0.14 nM. With ACDWHWEYDCWLSCDPSSKQA (linker 2-10-14 via TATA) [Example 212] the Kd was 250 nM. In the case of SNATKQCDWHWEYDCWLSCA (linker 7-15-19 via TATA; not fully specified (C-terminus)) [Example 210], the Kd is reported as 180 nM. Binder SQECQWNWTYDCWLGCA (linker 4-12-16 via TATA) [Example 203] has a Kd of 320 nM. Work on NRSPSECDWHWEYDCWLSC (linker 7-15-19 via TATA; not fully specified (C-terminus)) [Example 217] yielded a Kd of 860 nM. Work on CDWHWEYDCWLSCGDMSVS (linker 1-9-13 via TATA; not fully specified (C-terminus)) [Example 222] yielded a Kd of 450 nM. With CDWHWEYDCWLSCGAGESS (linker 1-9-13 via TATA; not fully specified (C-terminus)) [Example 228] the Kd was 2300 nM. SPTEPPCDWHWEYDCWLSC (linker 7-15-19 via TATA; not fully specified (C-terminus)) [Example 215] was tested, and the Kd was 240 nM. For ACALDPWVCPQWWDCA (linker 2-9-15 via TATA; not fully specified (C-terminus)) [Example 230], the Kd was 960 nM. ANDCVWHWEYDCWLDCA (linker 4-12-16 via TATA; not fully specified (C-terminus)) [Example 220] gave a Kd of 340 nM. Binder Ac-CDWHWEYDCWLSC (linker 1-9-13 via TATA; not fully specified (C-terminus)) [Example 218] has a Kd of 2000 nM. With ACDWDWDYDCWLPCFAE (linker 2-10-14 via TATA; not fully specified (C-terminus)) [Example 208] the Kd was 340 nM. Binder ACDWNWTYDCWLDCAPI (linker 2-10-14 via TATA) [Example 206] has a Kd of 430 nM. In the case of CDWHWEYDCWLSCYDNEMS (linker 1-9-13 via TATA; not fully specified (C-terminus)) [Example 223], the Kd is reported as 3000 nM. ADGCEWNWAYDCWLGCA (linker 4-12-16 via TATA) [Example 201] showed a Kd of 170 nM. CDWHWEYDCWLSCANSEFE (linker 1-9-13 via TATA; not fully specified (C-terminus)) [Example 227] was tested, and the Kd was 740 nM. For DEQHHECDWHWEYDCWLSCA (linker 7-15-19 via TATA; not fully specified (C-terminus)) [Example 209], the Kd was 910 nM. With AETCKWMWEYDCWLSCA (linker 4-12-16 via TATA) [Example 204] the Kd was 100 nM. Binder ACQEHDWYCLLYQPECA (linker 2-9-16 via TATA; not fully specified (C-terminus)) [Example 231] has a Kd of 1800 nM. With CDWHWEYDCWLSCEPETGQ (linker 1-9-13 via TATA; not fully specified (C-terminus)) [Example 216] the Kd was 320 nM. With ACSLDPWSCHNWWTCA (linker 2-9-15 via TATA; not fully specified (C-terminus)) [Example 229] the Kd was 9900 nM. Binder ACDELDIPCWIFKTLCA (linker 2-9-16 via TATA; not fully specified (C-terminus)) [Example 232] has a Kd of 8300 nM. B4 was tested, and the Kd was 0.027 nM.

These binders were tested against T1, Biotinylated human TSLP (assay: SPR, biotinylated hTSLP on streptavidin chip; Example 148, Ac-(SEQ ID NO: 107)).
For CQWLEDCWRGXC (N-term acetyl; CQWLEDCWRG[BnA]C as printed; 3 Cys on TATA) [Example 148], the Kd was 1100 nM.

What follows are binders tested against T1, Biotinylated human TSLP (assay: SPR, biotinylated hTSLP on streptavidin chip; Example 4, Ac-(SEQ ID NO: 4)).
B12 was tested, and the Kd was 2.7 nM.
